T1: P3028 (VFDEFKPLVEEPQNLIK, SEQ ID NO: 185), His-tagged (human)
T1 construct: Synthetic fragment of human serum albumin (positions 397-413); used in solution as His-tagged peptide PGE73; also called PGE73; not shown: His-tag
T1 peptide: VFDEFKPLVEEPQNLIK


Molecular target: T1, P3028 (VFDEFKPLVEEPQNLIK, SEQ ID NO: …)
Assay: PEPSCAN ELISA; peptide on chip, His-P3028 added;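 also: peroxidase color development with ABTS and H2O2 substrate, OD405 imaged by CCD camera with image processing and taken as raw values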
Description: After washing, the peroxidase substrate 2,2′-azine-di-3-ethylbenzthiazoline sulfonate (ABTS) and 2 μL of 3% H2O2 were added. The binding capacity of the mAb was measured as a color development at 405 nm (optical density, OD405). The color development was quantified with a charge-coupled device (CCD)—camera and an image processing system.
The OD405-values obtained by a CCD-camera was considered as raw data values (“rampo values,” “rampo units,” or “rampo scores”). […] First the CCD-camera made a picture of the card before peroxidase coloring and then again a picture after the peroxidase coloring. […] These values were copied into an excel file and labeled as a raw data file. […] Sometimes a well can contain an air-bubble resulting in a false-positive value. If manual inspection of the cards detect an air-bubble the value are set to 0 for well.

Binder	RAMPO Score [rampo units]
KKLDAFFVKLSLFTER [KKLDAFFVKLSLFTER (SEQ ID NO: 447)]	346
KKLDTFFVKLPLFTER [KKLDTFFVKLPLFTER (SEQ ID NO: 470)]	328
KKLDTFFVKLSCFTER [KKLDTFFVKLSCFTER (SEQ ID NO: 455)]	342
KKLDSFFVKLSLFTER [KKLDSFFVKLSLFTER (SEQ ID NO: 310)]	458
KKLDTFFLKLSLFTER [KKLDTFFLKLSLFTER (SEQ ID NO: 328)]	411
KKLDTFFVELSLFTER [KKLDTFFVELSLFTER (SEQ ID NO: 527)]	240
KKLDTFFVKHSLFTER [KKLDTFFVKHSLFTER (SEQ ID NO: 502)]	293
KKLDTFDVKLSLFTER [KKLDTFDVKLSLFTER (SEQ ID NO: 492)]	301
KKLDTFFVKLELFTER [KKLDTFFVKLELFTER (SEQ ID NO: 532)]	234
KKLDTFFGKLSLFTER [KKLDTFFGKLSLFTER (SEQ ID NO: 327)]	379
KKLDTFFVKKSLFTER [KKLDTFFVKKSLFTER (SEQ ID NO: 506)]	285
KKLDTFFVKFSLFTER [KKLDTFFVKFSLFTER (SEQ ID NO: 333)]	403
KKLDTFFVKLSLATER [KKLDTFFVKLSLATER (SEQ ID NO: 361)]	525
KKLDPFFVKLSLFTER [KKLDPFFVKLSLFTER (SEQ ID NO: 307)]	427
KKLDTFFRKLSLFTER [KKLDTFFRKLSLFTER (SEQ ID NO: 330)]	365
KKLDTFAVKLSLFTER [KKLDTFAVKLSLFTER (SEQ ID NO: 404)]	426
KKLDTFFVKCSLFTER [KKLDTFFVKCSLFTER (SEQ ID NO: 508)]	283
KKLDTFFVKLQLFTER [KKLDTFFVKLQLFTER (SEQ ID NO: 348)]	768
KKLDTFCVKLSLFTER [KKLDTFCVKLSLFTER (SEQ ID NO: 409)]	411
KKLDTFFVKLSGFTER [KKLDTFFVKLSGFTER (SEQ ID NO: 431)]	370
KKLDTFFVKLSFFTER [KKLDTFFVKLSFFTER (SEQ ID NO: 422)]	389
KKLDTFFVKLRLFTER [KKLDTFFVKLRLFTER (SEQ ID NO: 464)]	333

Binder	RAMPO Score [rampo units]
KKLDTFFVKLNLFTER [KKLDTFFVKLNLFTER (SEQ ID NO: 347)]	451
KKLDTFFVKLSAFTER [KKLDTFFVKLSAFTER (SEQ ID NO: 350)]	462
KKLDTFFVKGSLFTER [KKLDTFFVKGSLFTER (SEQ ID NO: 334)]	495
KKLDTFFVKLALFTER [KKLDTFFVKLALFTER (SEQ ID NO: 477)]	318
KKLDTFFVKLHLFTER [KKLDTFFVKLHLFTER (SEQ ID NO: 345)]	535
KKLDTFFVHLSLFTER [KKLDTFFVHLSLFTER (SEQ ID NO: 488)]	306
KKLDMFFVKLSLFTER [KKLDMFFVKLSLFTER (SEQ ID NO: 305)]	475
KKLDTFFFKLSLFTER [KKLDTFFFKLSLFTER (SEQ ID NO: 326)]	358
KKLDTFFVKASLFTER [KKLDTFFVKASLFTER (SEQ ID NO: 332)]	426
KKLDIFFVKLSLFTER [KKLDIFFVKLSLFTER (SEQ ID NO: 501)]	293
KKLDTFFPKLSLFTER (also called 32251) [KKLDTFFPKLSLFTER (SEQ ID NO: 329)]	456
KKLDTFEVKLSLFTER [KKLDTFEVKLSLFTER (SEQ ID NO: 424)]	381
KKLDTFFVKLSIFTER [KKLDTFFVKLSIFTER (SEQ ID NO: 352)]	456
KKLDHFFVKLSLFTER [KKLDHFFVKLSLFTER (SEQ ID NO: 420)]	391
KKLDTFFVKLSKFTER [KKLDTFFVKLSKFTER (SEQ ID NO: 438)]	355
KKLDNFFVKLSLFTER [KKLDNFFVKLSLFTER (SEQ ID NO: 306)]	436
KKLDLFFVKLSLFTER [KKLDLFFVKLSLFTER (SEQ ID NO: 484)]	311
KKLDTAFVKLSLFTER [KKLDTAFVKLSLFTER (SEQ ID NO: 313)]	575
KKLDTFFVKLILFTER [KKLDTFFVKLILFTER (SEQ ID NO: 505)]	289
KKLDTFFIKLSLFTER [KKLDTFFIKLSLFTER (SEQ ID NO: 416)]	401
KKLDTFFVKLKLFTER [KKLDTFFVKLKLFTER (SEQ ID NO: 473)]	323
KKLDTFFCKLSLFTER [KKLDTFFCKLSLFTER (SEQ ID NO: 519)]	254

Binder	RAMPO Score [rampo units]
KKLDTFFVKLFLFTER [KKLDTFFVKLFLFTER (SEQ ID NO: 522)]	250
KKLDTFFAKLSLFTER [KKLDTFFAKLSLFTER (SEQ ID NO: 495)]	299
KKLDTFFVKISLFTER [KKLDTFFVKISLFTER (SEQ ID NO: 335)]	415
KKLDTFFQKLSLFTER [KKLDTFFQKLSLFTER (SEQ ID NO: 513)]	271
KKLDFFFVKLSLFTER [KKLDFFFVKLSLFTER (SEQ ID NO: 504)]	290
KKLDEFFVKLSLFTER [KKLDEFFVKLSLFTER (SEQ ID NO: 456)]	341
KKLDTFFTKLSLFTER [KKLDTFFTKLSLFTER (SEQ ID NO: 496)]	298
KKLDDFFVKLSLFTER [KKLDDFFVKLSLFTER (SEQ ID NO: 500)]	295
KKLDGFFVKLSLFTER [KKLDGFFVKLSLFTER (SEQ ID NO: 95)]	386
KKLDKFFVKLSLFTER [KKLDKFFVKLSLFTER (SEQ ID NO: 530)]	237
KKLDTFFVKLMLFTER [KKLDTFFVKLMLFTER (SEQ ID NO: 346)]	744
KKLDTFFVKLGLFTER [KKLDTFFVKLGLFTER (SEQ ID NO: 99)]	288
KKLDCFFVKLSLFTER [KKLDCFFVKLSLFTER (SEQ ID NO: 304)]	449
KKLDTFFVKLSLFAER [KKLDTFFVKLSLFAER (SEQ ID NO: 489)]	305
KKLDTFFVKLCLFTER [KKLDTFFVKLCLFTER (SEQ ID NO: 457)]	341
KKLDTFFVKLSLCTER [KKLDTFFVKLSLCTER (SEQ ID NO: 362)]	400
KKLDTCFVKLSLFTER [KKLDTCFVKLSLFTER (SEQ ID NO: 462)]	335
KKLDTFFVKLSHFTER [KKLDTFFVKLSHFTER (SEQ ID NO: 351)]	460
KKLDQFFVKLSLFTER [KKLDQFFVKLSLFTER (SEQ ID NO: 308)]	535
KKLDTFFVKLDLFTER [KKLDTFFVKLDLFTER (SEQ ID NO: 474)]	322
KKLDRFFVKLSLFTER [KKLDRFFVKLSLFTER (SEQ ID NO: 309)]	430

— patent publication US20180177842A1 (CANIMGUIDE THERAPEUTICS, published 2018)
